{"source": "paper PMC2654521", "origin": "cited, not measured here", "key": {"[1]": {"molecular_target": "N-type calcium channel (Rattus norvegicus) (UniProt Q02294)", "sequence (Q02294 whole entry)": "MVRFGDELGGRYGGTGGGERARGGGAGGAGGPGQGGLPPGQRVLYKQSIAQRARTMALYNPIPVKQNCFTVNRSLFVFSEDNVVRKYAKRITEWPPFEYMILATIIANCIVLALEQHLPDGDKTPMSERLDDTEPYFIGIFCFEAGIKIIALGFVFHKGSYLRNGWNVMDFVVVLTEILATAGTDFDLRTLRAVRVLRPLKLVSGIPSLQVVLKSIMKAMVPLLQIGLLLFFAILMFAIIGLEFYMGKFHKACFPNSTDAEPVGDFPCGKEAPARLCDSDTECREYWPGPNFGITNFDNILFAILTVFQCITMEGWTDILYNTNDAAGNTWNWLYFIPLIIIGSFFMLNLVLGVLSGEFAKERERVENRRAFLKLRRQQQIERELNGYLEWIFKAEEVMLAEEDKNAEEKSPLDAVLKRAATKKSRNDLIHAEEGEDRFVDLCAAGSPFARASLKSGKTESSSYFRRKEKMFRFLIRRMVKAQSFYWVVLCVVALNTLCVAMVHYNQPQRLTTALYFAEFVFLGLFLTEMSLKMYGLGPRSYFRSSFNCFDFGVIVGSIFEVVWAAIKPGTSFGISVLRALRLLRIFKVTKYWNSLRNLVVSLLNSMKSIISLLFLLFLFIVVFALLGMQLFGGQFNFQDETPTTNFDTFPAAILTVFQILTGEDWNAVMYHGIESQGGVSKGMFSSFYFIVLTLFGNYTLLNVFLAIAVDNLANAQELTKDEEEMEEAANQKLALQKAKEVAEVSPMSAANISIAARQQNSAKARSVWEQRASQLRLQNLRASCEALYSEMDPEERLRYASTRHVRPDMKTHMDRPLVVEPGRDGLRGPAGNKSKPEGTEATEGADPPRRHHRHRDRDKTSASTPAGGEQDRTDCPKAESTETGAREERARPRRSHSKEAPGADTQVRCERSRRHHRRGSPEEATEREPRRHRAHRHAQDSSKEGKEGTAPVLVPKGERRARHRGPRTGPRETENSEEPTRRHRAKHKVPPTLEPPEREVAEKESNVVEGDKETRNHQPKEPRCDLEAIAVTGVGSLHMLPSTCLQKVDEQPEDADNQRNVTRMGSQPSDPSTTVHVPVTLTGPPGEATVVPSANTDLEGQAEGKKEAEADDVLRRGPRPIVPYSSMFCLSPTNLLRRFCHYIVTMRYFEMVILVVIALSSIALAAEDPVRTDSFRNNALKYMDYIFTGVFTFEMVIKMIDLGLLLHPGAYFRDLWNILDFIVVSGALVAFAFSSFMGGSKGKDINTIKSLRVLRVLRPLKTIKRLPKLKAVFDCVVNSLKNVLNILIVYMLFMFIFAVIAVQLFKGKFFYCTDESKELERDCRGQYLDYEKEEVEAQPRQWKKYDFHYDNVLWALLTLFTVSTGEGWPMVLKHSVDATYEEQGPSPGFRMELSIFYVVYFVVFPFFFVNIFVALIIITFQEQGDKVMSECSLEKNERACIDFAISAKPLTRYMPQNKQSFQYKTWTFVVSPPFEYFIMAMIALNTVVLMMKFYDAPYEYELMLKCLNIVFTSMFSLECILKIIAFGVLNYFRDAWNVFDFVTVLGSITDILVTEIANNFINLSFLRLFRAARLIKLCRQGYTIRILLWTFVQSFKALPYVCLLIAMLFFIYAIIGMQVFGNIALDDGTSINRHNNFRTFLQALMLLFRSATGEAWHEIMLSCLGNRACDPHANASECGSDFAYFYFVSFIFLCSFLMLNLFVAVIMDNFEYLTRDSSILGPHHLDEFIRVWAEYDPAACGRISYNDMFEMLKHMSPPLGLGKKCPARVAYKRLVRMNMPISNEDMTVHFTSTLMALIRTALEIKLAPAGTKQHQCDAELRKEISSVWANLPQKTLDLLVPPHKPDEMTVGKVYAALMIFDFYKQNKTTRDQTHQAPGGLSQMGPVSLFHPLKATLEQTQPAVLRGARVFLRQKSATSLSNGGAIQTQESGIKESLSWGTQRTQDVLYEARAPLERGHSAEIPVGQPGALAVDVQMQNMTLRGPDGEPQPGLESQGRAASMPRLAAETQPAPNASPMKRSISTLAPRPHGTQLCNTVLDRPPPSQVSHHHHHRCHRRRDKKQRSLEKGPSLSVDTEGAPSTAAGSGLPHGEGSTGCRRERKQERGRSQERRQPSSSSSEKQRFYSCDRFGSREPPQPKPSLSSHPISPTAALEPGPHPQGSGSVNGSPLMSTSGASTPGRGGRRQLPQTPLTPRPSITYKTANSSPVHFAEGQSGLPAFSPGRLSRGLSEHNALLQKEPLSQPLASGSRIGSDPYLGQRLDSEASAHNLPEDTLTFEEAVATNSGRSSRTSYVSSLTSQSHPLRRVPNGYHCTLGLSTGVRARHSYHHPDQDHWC", "test": "radioligand"}, "[2]": {"molecular_target": "N-type calcium channel (Rattus norvegicus) (UniProt Q02294)", "test": "radioligand", "remark": "listed apart in the source"}}, "note": "“And” between values parts separate entries of the source, which are not always exact repeats. Equal values may be shown once. Read-outs that look alike come from different tables or passages of the source.", "data": [{"substance": "ziconotide (omega-conotoxin MVIIA) (from UniProt P05484)", "values": [{"measurement": "Kd", "setting": "[1]", "value": "7 pM and 18 pM"}, {"measurement": "Kd", "setting": "[2]", "value": "1.1 pM and 9 pM"}, {"measurement": "Ki", "setting": "[2]", "value": 1, "unit": "pM"}]}]}
